# Assay: soluble on expression in E. coli; label from the status in PepcDB or PDB records
row,Sequence,soluble on expression in E. coli
1,SNAMTEARKIPKPSFPYGSPGELNSFLPYLLTRITHIWSSELNQALASEKLPTPKLRLLSSLSAYGELTVGQLATLGVMEQSTTSRTVDQLVDEGLAARSISDADQRKRTVVLTRKGKKKLAEISPLINDFHAELVGNVDPDKLQTCIEVLGEILKGKTDY,soluble
2,SNANAEPAVKAESAGKSVAASLKARLEKTYSAQDLKVLSVSETPVKGIYEVVVSGRQIIYTDAEGGYMFVGELINIDTRKNLTEERAADLNKIDFASLPLDKAIKEVRGNGKLKVAVFSDPDCPFCKRLEHEFEK,not soluble
3,SNANNLFVYCEIEEGIVADVSLELLTKGRSLANELNCQLEAVVAGTGLKEIEKQILPYGVDKLHVFDAEGLYPYTSLPHTSILVNLFKEEQPQICLMGATVIGRDLGPRVSSALTSGLTADCTSLEIGDHEDKKEGKVYKNLLYQIRPAFGGNIVATIVNPEHRPQMATVREGVMKKEIVSPAYQGEVIRHDVKKYVADTDYVVKVIERHVEKAKNN,soluble
4,SNAQVEVIVMMHGRSTATSMVETVQELLSIESGIALDMPLTVEVKAMYEKLKQTVVKLNPVKGVLILSDMGSLTSFGNILTEELGIRTKTVTMVSTPVVLEAMRKASLGRGLEDIYQSCEQLFENKYKAH,soluble
5,SNARGLGSELKDSIPVAELSASGPFESHDLLRKGFSCVKNELLPSHPLELSEKNFQLNQDKMNFSTLRNIQGLFAPLKLQMEFKAVQQVHRLPFLPSSNLSLDILRGNDETIGFEDILNDPSQSELMGEPHVMVEHKLGLL,soluble
6,SNASKGMALRSVGGMVIESPRNETEHWLLETVGRQAQQAGIGMPTVAIYDSADINAFATGAKRDDSLVAVSTGLLHNMTRDEAEAVLAHEVSHIANGDMVTMTLMQG,soluble
7,SNIMDFNVKKLAADAGTFLSRAVQFTEEKLGQAEKTELDAHLENLLSKAECTKIWTEKIMKQTEVLLQPNPNARIEEFVYEKLDRKAPSRINNPELLGQYMIDAGTEFGPGTAYGNALIKCGETQKRIGTADRELIQTSALNFLTPLRNFIEGDYKTIAKERKLLQNKRLDLDAAKTRLKKAKAAETRNSSEQELRITQSEFDRQAEITRLLLEGISSTHAHHLRCLNDFVEAQMTYYAQCYQYMLDLQKQLGSFPSNYLSNNNQTSVTPVPSVLPNAIGSSAMASTSGLVITSPSNLSDLKECSGSRKARVLYDYDAANSTELSLLADEVITVFSVVGMDSDWLMGERGNQKGKVPITYLELLN,not soluble
8,SNTLRDFFTNETYTTIENEQHVLTEYRLPGSIERRYYSEEATAPTTVRSVQHVLLPENEEASSDKDLSILSSSFIHKVYKLADKQEAKKKRYSADVNGEKVFFVIKKGLSVNGQSAMMLSYALDSYRDDLAYTLFKQ,not soluble
9,SPFMFRPRKQVFQTQGAAVSSMAQTLLPNDLASKAMGSAFTALLDANEDAQKAMKIIKTLSSLSDAWENVKETLNNPEFWKQLLSRCVQLIAGMTIAVMHPDPLTLLCLGTLTAAEITSQTSLCEEIAAKFKTIFITPPPRFPTISLFQQQSPLKQVNDIFSLAKNLDWAVKTVEKVVDWFGTWIVQEEKEQTLDQLLQRFPEHAKRISDLRNGMAAYVECKESFDFFEKLYNQAVKEKRTGIAAVCEKFRQKHDHATARCEPVVIVLRGDAGQGKSLSSQVIAQAVSKTIFGRQSVYSLPPDSDFFDGYENQFAAIMDDLGQNPDGSDFTTFCQMVSTTNFLPNMASLERKGTPFTSQLVVATTNLPEFRPVTIAHYPAVERRITFDYSVSAGPVCSKTEAGYKVLDVERAFRPTGEAPLPCFQNNCLFLEKAGLQFRDNRTKEIISLVDVIERAVARIERKKKVLTTVQTLVAQ,soluble
10,SQIPLCANLVPVPITNATLDRITGKWFYIASAFRNEEYNKSVQEIQATFFYFTPNKTEDTIFLREYQTRQNQCFYNSSYLNVQRENGTVSRYEGGREHVAHLLFLRDTKTLMFGSYLDDEKNWGLSFYADKPETTKEQLGEFYEALDCLCIPRSDVMYTDWKKDKCEPLEKQHEKERKQEEGES,soluble
11,SQNNEIIKPAKYFSELEKSILLALVEKYKYVLECKKSDARTIALKQRTWQALAHEYNSQPSVSLRDFKQLKKCWENIKARTKKIMAHERREKVKRSVSPLLSTHVLGKEKIASMLPEQLYFLQSPPEEEPEYHPDASAQESFAVSNRELCDDEKEFIHFPVCEGTSQPEPSCSAVRITANKNYRSKTSQEGALKKMHEEEHHQQMSILQLQLIQMNEVHVAKIQQIERECEMAEEEHRIKMEVLNKKKMYWERKLQTFTKEWPVSSFNRPFPNSP,soluble
12,SQTRDLQGGKAFGLLKAQQEERLDEINKQFLDDPKYSSDEDLPSKLEGFKEKYMEFDLNGNGDIDIMSLKRMLEKLGVPKTHLELKKLIGEVSSGSGETFSYPDFLRMMLGKRSAILKMILMYEEKAREK,not soluble
13,SRMRRYKSYFDWFDRQELHSMFQIAVPSVLQQSTVSIGMMIVQAVVNPFGTQALAGYAATMRVENVFSLIFVSIGNAVSPYVSQNLGANKPQRIKKGYRAA,not soluble
14,SRRLEDLHPDLQPLAHSFLRRCTDAGLDVLIYCTYRSGAEQDQLYAQGRKGSPGPIVTNARAGQSAHNFTIQNRPAARAFDAVPMVGGKPQWDQKHPHWQIMGRIGTELG,not soluble
15,SSGGKSAQGPEEGGVCITEALITKRNLTFPEDGELSEKMFHTLDELQTVRLDREGITTIRNLEGLQNLHSLYLQGNKIQQIENLACIPSLRFLSLAGNQIRQVENLLDLPCLQFLDLSENLIETLKLDEFPQSLLILNLSGNSCTNQDGYRELVTEALPLLLDLDGQPVVERWISDEEDEASSDEEFPELSGPFCSERGFLKELEQELSRHREHRQQTALTEHLLRMEMQPTLTDLPLLPGVPMAGDSSPSATPAQGEETVPEAVSSPQASSPTKKPCSLIPRGHQSSFWGRKGARAATAPKASVAEAPSTTKTTAKRSKK,soluble
16,SSIRFYLAPNDADFTVYYTGTDGNWYETKATYKKVSVKKYEVTLPEITIGGAAEIEFKGVHRGPPNTVISAKFDVVGGTTQPEPEPDPAPEPQPAPEPEPGTSVNPAAPTAVDPATAPSCVEKGYINIPDTKGVDYFIGGELKHAGQHFYEGQKASVKVTAKPQNGYQFAAGAKTEWSFDFSGEVKDCSDSSEDPKPAAVEGRHFDAIGHEFAVEADPVDPTKPNAFTAKVTAESHMKYATVRIETDATFLDPQKYNLTLDQIEPGVTLQKRNVNIGNGFITMDVVPVKDGKPVDSAVVPKDAVFTFTNNLSENKNLKIALDVYGANKSTPKPPDIISPPDGAQWVHGRVPNPPMPKRCGLRIAVVADLSTSLKYADSNGFDESKKAANALIDSLAGTPAELGIYNFAGGAPRNPAGSTYGQNPPYISLQSDDGVSRAKSIVSNWNGNGSTNWEAGLKQVAAGNYDVVYFITDGMPTYSSKAPQLGLGGEFVQESALNQAIDAANELKAAGTRVVPIMVDLTVGGKNAQHTTVTQDLVLKNVRFWKRGTSNSEPGLYFQFTNKYVDAASYVGDDTTANFEIAYKNGGFKVWERTSRGRNIDVTRDQSKWTYGPREVKTMGEDISGTGDTIRVEQYSQLAAQMKKIGEELALRCNGVVKVKKRIVDENGRAIEDGVPGWEFTLSAGGQDIIDPGNGDRVRKSLKATSSANEDRGTASWNIMSEQEQQLTLVETQQPGFNLYKRNDKNAVCTETRDGVMKPIEVTNDGEFGFKVKMRAKDKKLSSVSCVVDNYKQPETPPGKLTFKKAQYNGDKIEEIPGLGGATFEIYPSKGDQPDYSAEALYTIKPGQESIEVKTTGTFFLVETKAPKGLNLLAQPVKFEISVDETTKKYKISVGSTSSGQVQAKGEGDKMILTVADTTAGELPKTGG,not soluble
17,SSLIQAGQQTRFTTDASAAVEPADSARETWSRGVLVAWDMTLGDVVKELRRYRSGYLGIAPEVAGLRVFGSFPLRDTDDTLTMLASALPIRIQRTLPWWVSIEARTDADPHR,not soluble
18,SSMIMYRKDLMEKAGLTMPDAPTWDFVKEAAQKMTDKDAEVYGICLRGKAGWGENMAFLTAMANSYGARWFDENWQPQFDGEAWKATLTDYLDMMTNYGPPGASNNGFNENLALFQQGKCGMWIDATVAASFVTNPEESTVADKVGFALAPDTGKGKRANWLWAWNLAIPAGSQKVDAAKQFIAWATSKDYAELVASKEGWANVPPGTRISLYENP,not soluble
19,SSQSISPMRSISENSLVAMDFSGQKSRVIENPTEALSVAVEEGLAWRKKGSLRLGTHGS,soluble
20,SSSSVPNSDRKIVTGPAGYILEDVPHFSDDFPDHPTYPNPLQDNAAYSVVKQYFVDEDDTVPQKIVVHPDSPRGTHFRRAGPRQRVYFESDDVLACIVTCGGLCPGLNTVIREIVCGLSYMYGVKRILGIDGGYRGFYARNTIHLDLKTVNDIHRSGGTILGTSRGGHNTTKIVDSIQDRGINQVYIIGGDGSQKGAAAIFEEIRKRKLKVAVAGIPKTIDNDIPIIDRSFGFDTAVEEAQRAINAAHVEATSFENGIGLVKLMGRYSGFIAMHATLASRDVDCCLIPESPFFLEGSGGLFEFIDKRLKESGHMVIVIAEGAGQDLLSESMKESTTLKDASGNKLLQDIGLWISQRIKDHFAKKMTLTLKYIDPTYMIRAVPSNASDNVCCTLLAQSAVHGVMAGYNGFTVGLVNGRHTYIPFNRITEKQNKVVITDRMWARLLSSTNQPSFMKQADKIHSNQLVGEPGTMKW,soluble
21,SSTFSASDFNSERYSSSRPSYPSDFYKMIDEYHDGERKLLVDVGCGPGTATLQMAQELKPFEQIIGSDLSATMIKTAEVIKEGSPDTYKNVSFKISSSDDFKFLGADSVDKQKIDMITAVECAHWFDFEKFQRSAYANLRKDGTIAIWGYADPIFPDYPEFDDLMIEVPYGKQGLGPYWEQPGRSRLRNMLKDSHLDPELFHDIQVSYFCAEDVRDKVKLHQHTKKPLLIRKQVTLVEFADYVRTWSAYHQWKQDPKNKDKEDVADWFIKESLRRRPELSTNTKIEVVWNTFYKLGKRV,soluble
22,SSTGTFVVSQPLNYRGGARVEPADASGTEKAFEPATGRVIATFTCSGEKEVNLAVQNAKAAFKIWSQKSGMERCRILLEAARIIREREDEIATMECINNGKSIFEARLDIDISWQCLEYYAGLAASMAGEHIQLPGGSFGYTRREPLGVCVGIGAWNYPFQIASWKSAPALACGNAMVFKPSPFTPVSALLLAEIYSEAGVPPGLFNVVQGGAATGQFLCQHPDVAKVSFTGSVPTGMKIMEMSAKGIKPVTL,soluble
23,STAGKVIKCKAAVLWEEKKPFSIEEVEVAPPKAHEVRIKMVATGICRSDDHVVSGTLVTPLPVIAGHEAAGIVESIGEGVTTVRPGDKVIPLWTPQCGKCRVCKHPEGNFCLKNDLSMPRGTMQDGTSRFTCRGKPIHHFLGTSTFSQYTVVDEISVAKIDAASPLEKVCLIGCGFSTGYGSAVKVAKVTQGSTCAVFGLGGAGLSVIMGCKAAGAARIIGVDINKDKFAKAKEVGATECVNPQDYKKPIQEVLTEMSNGGVDFSFEVIGRLDTMVTALSCCQEAYGVSVIVGVPPDSQNLSMNPMLLLSGRTWKGAIFGGFKSKDSVPKLVADFMAKKFALDPLITHVLPFEKINEGFDLLRSGESIRTILTF,soluble

# Source: the DeepSol protein solubility set
